The values that follow come from US20110150759A1.

Assay [1] addresses EGFR 1-621 full length extracellular domain (human) (UniProt P00533). Put plainly: SPR (BIAcore), EGFR fragment 1-621 (can form tether). (In general: In SPR one partner is held on a chip, and binding of the other changes the refractive index at the surface.)
Assay [2] concerns the target soluble EGFR fragment 1-501 (human) (UniProt P00533). Nature of the assay: SPR (BIAcore), EGFR fragment 1-501 (unable to form tether).
Assay [3] concerns the target C271A/C283A-EGFR (human) (UniProt P00533). Nature of the assay: flow cytometry on Ba/F3 cells, median fluorescence, average of four independent clones; reference M2 anti-FLAG antibody. (In general: In flow cytometry, cells or beads pass a laser one at a time.)
In assay [4] the target is wtEGFR-FLAG (human) (UniProt P00533). Nature of the assay: flow cytometry on Ba/F3 cells, median fluorescence; reference M2 anti-FLAG antibody.

Sequence of monoclonal antibody 806 (VH): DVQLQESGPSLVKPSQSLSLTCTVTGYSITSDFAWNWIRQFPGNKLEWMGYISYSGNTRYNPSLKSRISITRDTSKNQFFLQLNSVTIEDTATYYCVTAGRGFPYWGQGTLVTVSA
Sequence of monoclonal antibody 806 (VL): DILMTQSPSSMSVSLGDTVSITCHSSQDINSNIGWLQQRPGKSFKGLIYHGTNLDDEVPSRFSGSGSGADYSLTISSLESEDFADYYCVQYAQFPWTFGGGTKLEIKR

Regarding monoclonal antibody 806, the Kd – broadly, a measure of binding affinity in units of concentration – is 389 nM in assay [1] and 34 nM in assay [2].
Turning to mAb 528 (antibody), the ratio of antibody binding mAb 528/M2 was 1.08 in assay [3] and 1.37 in assay [4].
